Data as given in patent US20130195869A1 (SEKISUI CHEMICAL, published 2013).

Assays:
[1] = molecular target: human CCR7 expressed on CHO-K1 cells (human CCR7 gene-introduced stable expression cell) (human) (UniProt P32248); assay: flow cytometry, 10 µg/mL antibody on hCCR7 gene-introduced CHO-K1 cells, PE anti-mouse IgG
[2] = molecular target: T1, human CCR7 expressed on CHO-K1 cells (human CCR7 gene-introduced stable expression cell) (human, UniProt P32248 25-378); assay: cell-based or functional assay
T1 sequence: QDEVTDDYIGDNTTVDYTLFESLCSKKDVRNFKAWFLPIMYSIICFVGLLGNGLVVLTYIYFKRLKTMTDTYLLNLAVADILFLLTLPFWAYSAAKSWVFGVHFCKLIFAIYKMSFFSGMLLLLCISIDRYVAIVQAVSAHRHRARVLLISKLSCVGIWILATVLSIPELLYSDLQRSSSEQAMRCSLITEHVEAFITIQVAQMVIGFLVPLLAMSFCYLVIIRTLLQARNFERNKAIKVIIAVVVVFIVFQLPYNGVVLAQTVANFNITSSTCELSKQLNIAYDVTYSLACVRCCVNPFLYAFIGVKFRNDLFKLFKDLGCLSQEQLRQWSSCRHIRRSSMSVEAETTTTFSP

[3] = molecular target: T2, human native CCR7 on peripheral blood mononuclear cells of a healthy person (human, UniProt P32248 25-378); assay: flow cytometry, 0.5 µg antibody on 3×10^5 human PBMC, FITC anti-mouse IgG
T2 construct: whole, on cells; Endogenous receptor on primary cells of a donor; kept apart from the recombinant receptor on CHO-K1 cells; also called CCR7 on PBMC
T2 sequence (looked up): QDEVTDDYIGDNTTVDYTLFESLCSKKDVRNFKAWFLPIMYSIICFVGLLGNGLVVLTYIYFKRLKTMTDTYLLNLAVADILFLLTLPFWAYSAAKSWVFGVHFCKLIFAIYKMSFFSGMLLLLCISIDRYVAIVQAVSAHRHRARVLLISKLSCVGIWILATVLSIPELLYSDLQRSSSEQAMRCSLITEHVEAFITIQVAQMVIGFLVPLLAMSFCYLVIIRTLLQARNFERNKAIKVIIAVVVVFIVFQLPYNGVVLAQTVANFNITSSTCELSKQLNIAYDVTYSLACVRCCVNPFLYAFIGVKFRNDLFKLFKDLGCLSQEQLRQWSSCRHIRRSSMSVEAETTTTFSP
Description: From peripheral blood of a healthy person, mononuclear cells (PBMC) were isolated using Lymphoprep (Axis-Shield) according to a routine method. The isolated PBMC were suspended in a phosphate buffered saline (PBS) solution containing 1 mg/mL human gamma-globulin (Jackson Immuno Research Laboratories), and blocked by incubation at room temperature for 30 minutes. The PBMC (3×10⁵ cells) after blocking were incubated together with each anti-human CCR7 antibody (0.5 μg) or isotype control antibody (0.5 μg) at 4° C. for one hour. Thereafter, PBMC were washed three times with a washing buffer (PBS solution containing 0.1% fetal bovine serum). Then, a fluorescein isothiocyanate (FITC)-labeled anti-mouse IgG antibody (Beckman Coulter) was added as secondary antibody, and incubated at 4° C. for 1 hour. PBMC were washed again three times with the washing buffer, and then analyzed by using a flow cytometer (Beckman Coulter).

[4] = molecular target: T1, human CCR7 expressed on CHO-K1 cells …; assay: flow cytometry, 10 µg/mL antibody on hCCR7 gene-introduced CHO-K1 cells, PE anti-mouse IgG
Description: A 10 μg/mL solution of an anti-human CCR7 monoclonal antibody or mouse control IgG (Thermo, negative control) in PBS was prepared (hereinafter, referred to as “antibody solution”). After washing hCCR7 gene-introduced cells with PBS, the antibody solution was incubated together with the cells. Further, the cells were washed with PBS, and added with a phycoerythrin-labeled anti-mouse IgG antibody (Beckman Coulter) as a secondary antibody. Then interaction between the cells, and the anti-human CCR7 antibody or the mouse control IgG was analyzed by using a flow cytometer FACScalibur (Becton, Dickinson). FIG. 9 is a histogram showing an analytical result of interaction between hCCR7 gene-introduced cells, and mouse control IgG. FIG. 10 is a histogram showing an analytical result of interaction between a hCCR7 gene-introduced cell, and anti-human CCR7 antibody R7-47. […] In FIGS. 9 and 10, the vertical axis represents the number of cells, and the horizontal axis represents fluorescence intensity originating from phycoerythrin (PE). Of the two areas (M1, M2), the cell belonging to M2 (right area) indicates the cells that binds to the antibody. In Table 2, a percentage of specifically binding cells is represented by M2/(M1+M2).

| Molecule | Percentage of specifically binding cells (M2/(M1 + M2)) [1] | 50% inhibition concentration (IC50) of the intracellular Ca^2+ rise caused by 1×10^-7 M CCL21 [2] | Percentage of specifically binding cells [3] | Percentage of specifically binding cells (M2/(M1 + M2)) [4] |
| --- | --- | --- | --- | --- |
| mouse control IgG (Thermo, negative control) (antibody) | 0.7% | – | – | – |
| anti-human CCR7 monoclonal antibody R7-02 (hybridoma FERM BP-11404) (antibody, IgG2a, V domains shown, Mouse monoclonal antibody from hybridoma) VH: QVQLQQSGAELERPGASVKLSCTASGFNIRDDYVHWVKQRPEQGLEWIGRIDPANGNTKYGPKFQAKATLTADTSSNTAYLQLGSLTSEDTAVYYCTRSFYDYDLFVPWGQGTLVTVSA VL: DAVVTQESALTTSPGETVTLTCRSSTGAVTKNNFANWVQEKPDHLFTGLIGGNNIRAPGVPARFSGSLIGDKAALSITGAQTEDEAIYFCALWYSNHWVFGGGTK | – | 0.046 µM | 44.6% | 100% |
| anti-human CCR7 monoclonal antibody R7-05 (hybridoma FERM BP-11371) (antibody, IgG2b, V domains shown, Mouse monoclonal antibody from hybridoma) VH: EVQLQQSGAELVRPGASVKLSCTASGFNIKDDYIHWVKQRPEQGLDWIGRVDPADGNTKYAPNFHDKATVTADTSSNTAYLQLSSLTSEDTAVYYCARSFYDYDLFASWGQGTLVTVSA VL: DAVVTQESALTTSPGETVTLTCRSSTGAVTTSNFANWVQEKPDHLFTGLISSNNKRAPGVPARFSGSLIGDKAALSITGAQTEDEAIYFCALWYSNHWVFGGGTK | – | 0.094 µM | 37.3% | 100% |
| anti-human CCR7 monoclonal antibody R7-09 (hybridoma FERM BP-11372) (antibody, IgG2a, V domains shown, Mouse monoclonal antibody from hybridoma) VH: EVQLQQSGTELVRPGASVKLSCTASGFNIKDDYIHWVKQRPDQGLEWIGRIDPANGNTKYAPKFQDKATITSDTSSNTAYLQLSSLTSEDTAVYYCARSFYDYDLFASWGQGTLVSVSA VL: DAVVTQESALTTSPGGTVILTCRSSTGAVTTSNFANWVQEKPDHLFSGLISGNNKRAPGVPARFSGSLIGDKAALSITGAQTEDEAMYFCALWYNNHWVFGGGTK | – | 0.032 µM | 32.9% | 100% |
| anti-human CCR7 monoclonal antibody R7-11 (hybridoma FERM BP-11373) (antibody, IgG1, V domains shown, Mouse monoclonal antibody from hybridoma) VH: EVQLQQSGPDLVMPGASVRISCKASGYSFTAYYMHWVKQSHGLSLEWIGRVNPNNGGTSYNRKFKDKAILTVDRSSSTAFMELRSLTSEDSAVYYCARSESDHFYAMDSWGQGNSVSVSS VL: DIVMTQTPLSLPVSLGDQVFISCRSSQSLVHSNGNTYLCWFLQKPGQSPKLLIYRVSNRFSGVPDRFSGSGSGTDFTLKISRVEAEDLGVYFCFQGSHVPHTFGSGTK | – | 0.016 µM | 25.5% | 100% |
| anti-human CCR7 monoclonal antibody R7-18 (hybridoma FERM BP-11374) (antibody, IgG1, V domains shown, Mouse monoclonal antibody from hybridoma) VH: EVQLQQSGPDLVKPGASVKISCKASGYSFTGYYMHWVKQSHGKSLEWIGRVNPNNGGTSYNKKFKVKAILTVDRSSSTAYMEFRSLTLEDSAVYYCARSESNNFYAMDYWGQGKSVTVSS VL: DILMTQTPLSLPVSLGDQVSISCRSSQSLVHSNGNTYLCWYLQKPGQSPKLLIYRVSNRFSGVPDRFSGSGSGTDFTLKISRVEAEDLGVYFCFQGSHVPHTFGSGTK | – | 0.011 µM | 40.5% | 100% |
| anti-human CCR7 monoclonal antibody R7-25 (hybridoma FERM BP-11375) (antibody, IgG1, V domains shown, Mouse monoclonal antibody from hybridoma) VH: EVMVVESGPGLMKPSQSLSLTCAVTGYSITSGYDWHWIRHFPGNILEWMGYINYSGSTNYKPSLKSRISITLDTSKNHFFLKLSSVTTEDTATYYCARGSYYSYEFAYWGQGTLVTVSA VL: DIVMSQSPSSLAVSVGEKVTMSCKSSQRLLYYSTQKNYLAWYQQKPGQSPKLLIFWASTRESGVPNRFTGSGSGTDFTLTINSVKAEDLAVYYCQQYYTYPTFGGGTK | – | 0.022 µM | 47% | 100% |
| anti-human CCR7 monoclonal antibody R7-01 (hybridoma FERM BP-11369) (antibody, IgG1, V domains shown, Mouse monoclonal antibody purified from hybridoma supernatant on protein G) VH: EVQLQQSGPELVKPGTSVKMSCKGSGYTFTDYYINWVRQSHGKSLEWIGRVNPGNGGTSYNQRFKGKATLTVDKFLSTAFMQLNSLTSEDSAVYFCARTGTYYNYDRGGFAYWGHGTLVTVSA VL: DVLLTQSPVSLPVSLGDQASISCRCSQNIVHINGNTYLEWFLQKPGQSPKLLIYKVSNRFSGVPDRFSGSGSGTDFTLKIRRVEAEDLGVYYCFQGSHVPHTFGSGTK | – | 0.34 µM | 10.8% | 99.8% |
| anti-human CCR7 monoclonal antibody R7-47 (hybridoma FERM BP-11376) (antibody, IgG1, V domains shown, Mouse monoclonal antibody from hybridoma) VH: EVQLQQSGPDLVKPGTSVKISCKASGYKFTDFNMDWVRQRHGKSLEWIGDVNPQNGEIFYNQKFRGKATLTVVKSSSTTYLELRSLTSEDTAVYFCTRLEFDYTGSNGFAYWGQGTLVTVSA VL: DILMTQTPLSLPVSLGDQASISCRSSQTLVHRNGNTYLEWYLQKPGQSPKLLIYKVSNRFSGVPDRFSGRGSGTDFTLKISRVEAEDQGIYYCFQGSHDPWTFGGGTK | – | 0.0074 µM | 49.3% | 99.9% |
